For one substance, half-life of dissociation results are on record in article PMC2115427.

In this experiment the target is urokinase plasminogen activator receptor (uPAR) of U937 cells (human (endogenous in U937)) (UniProt Q03405).
Chain of UniProt Q03405 (Q03405 23-305): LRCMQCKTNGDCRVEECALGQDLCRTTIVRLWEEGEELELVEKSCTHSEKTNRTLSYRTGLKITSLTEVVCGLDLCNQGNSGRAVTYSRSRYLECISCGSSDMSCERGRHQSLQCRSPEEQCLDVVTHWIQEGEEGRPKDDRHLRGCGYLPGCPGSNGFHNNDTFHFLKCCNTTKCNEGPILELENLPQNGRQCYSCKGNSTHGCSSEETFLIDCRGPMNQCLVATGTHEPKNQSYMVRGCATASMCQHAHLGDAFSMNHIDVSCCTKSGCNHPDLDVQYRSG

With “human urinary urokinase of high Mr (uPA) (enzyme)”, the half-life of dissociation turned out to be 3 h.
